Measurements: patent US5910570

What was measured:
[1] = biological target: bovine cytochrome C, native (bovine) (UniProt P62894)
[2] = biological target: bovine cytochrome C, reduced and carboxymethylated (bovine) (UniProt P62894)
[3] = biological target: T1, bovine rhodanese, native (bovine) (UniProt P00586)
T1 sequence: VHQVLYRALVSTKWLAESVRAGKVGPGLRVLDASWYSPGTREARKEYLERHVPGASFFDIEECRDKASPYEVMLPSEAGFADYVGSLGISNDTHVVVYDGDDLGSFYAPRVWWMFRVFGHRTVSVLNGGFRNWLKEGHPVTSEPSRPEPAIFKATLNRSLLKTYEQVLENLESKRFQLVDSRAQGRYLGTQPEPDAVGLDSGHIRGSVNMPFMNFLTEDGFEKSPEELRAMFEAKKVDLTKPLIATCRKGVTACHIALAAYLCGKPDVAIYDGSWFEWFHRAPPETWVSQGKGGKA

[4] = biological target: T2, bovine rhodanese, reduced and carboxymethylated (bovine) (UniProt P00586)
T2 sequence (chain, reduced and carboxymethylated): T1 sequence

[5] = biological target: T3, subtilisin, native (Bacillus amyloliquefaciens (Bacillus velezensis)) (UniProt P00782)
T3 sequence: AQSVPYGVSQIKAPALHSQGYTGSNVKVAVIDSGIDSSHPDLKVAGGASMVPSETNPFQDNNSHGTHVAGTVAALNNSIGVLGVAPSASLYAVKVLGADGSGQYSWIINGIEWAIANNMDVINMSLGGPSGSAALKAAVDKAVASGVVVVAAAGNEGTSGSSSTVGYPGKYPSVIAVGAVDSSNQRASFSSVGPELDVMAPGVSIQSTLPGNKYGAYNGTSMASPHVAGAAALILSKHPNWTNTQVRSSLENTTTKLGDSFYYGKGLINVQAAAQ

[6] = biological target: T4, subtilisin, reduced and carboxymethylated (Bacillus amyloliquefaciens (Bacillus velezensis)) (UniProt P00782)
T4 sequence (chain, reduced and carboxymethylated): T3 sequence

[7] = biological target: T5, synthetic acceptor peptide Arg-Ser-Pro-Pro-Pro (RSPPP)
T5 sequence (peptide): RSPPP

[8] = biological target: T6, synthetic acceptor peptide Arg-Thr-Pro-Pro-Pro (RTPPP)
T6 sequence (peptide): RTPPP

[9] = biological target: synthetic acceptor peptide Pro-Pro-Ala-D-Ser-Thr-D-Ser-Ala-Pro-Gly (PPAdSTdSAPG)
[10] = biological target: T5, synthetic acceptor peptide Arg-Ser-Pro-Pro-Pro (RSPPP); remark: listed apart in the source
[11] = biological target: synthetic acceptor peptide Pro-Pro-Ala-D-Ser-Thr-D-Ser-Ala-Pro-Gly (PPAdSTdSAPG); remark: listed apart in the source

Chain of myelin basic protein (P02687 whole entry): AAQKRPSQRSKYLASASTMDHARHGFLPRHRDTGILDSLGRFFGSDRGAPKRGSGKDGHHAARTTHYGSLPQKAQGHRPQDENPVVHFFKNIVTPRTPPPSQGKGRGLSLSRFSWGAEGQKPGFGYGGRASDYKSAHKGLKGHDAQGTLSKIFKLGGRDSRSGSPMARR

Product formed [1]: < 0.1 nmol/min/mg
Product formed [2]: < 0.1 nmol/min/mg
Product formed [3]: < 0.1 nmol/min/mg
Product formed [4]: 3.3 nmol/min/mg
Product formed (myelin basic protein): 22.2 nmol/min/mg
Product formed [5]: < 0.1 nmol/min/mg
Product formed [6]: 0.6 nmol/min/mg
Vmax/Km [7]: 0.4 M⁻¹ s⁻¹
Km [8]: 3.3 mM
Vmax/Km [8]: 183 M⁻¹ s⁻¹
Vmax/Km [9]: 1.2 M⁻¹ s⁻¹
Product formed [10]: 0.67 nmol/min/mg
Product formed [11]: 2 nmol/min/mg
B1: UDP-GalNAc:polypeptide N-acetylgalactosaminyltransferase purified from bovine colostrum (enzyme)
chain: GLPAGDVLEPVQKPHEGPGEMGKPVVIPKEDQEKMKEMFKINQFNLMASEMIALNRSLPDVRLEGCKTKVYPDNLPTTSVVIVFHNEAWSTLLRTVHSVINRSPRHMLEEIVLVDDASERDFLKRPLESYVKKLKVPVHVIRMEQRSGLIRARLKGAAVSKGQVITFLDAHCECTVGWLEPLLARIKHDRKTVVCPIIDVISDDTFEYMAGSDMTYGGFNWKLNFRWYPVPQREMDRRKGDRTLPVRTPTMAGGLFSIDRDYFQEIGTYDAGMDIWGGENLEISFRIWQCGGTLEIVTCSHVGHVFRKATPYTFPGGTGQIINKNNRRLAEVWMDEFKNFFYIISPGVTKVDYGDISSRLGLRHKLQCRPFSWYLENIYPDSQIPRHYFSLGEIRNVETNQCLDNMARKENEKVGIFNCHGMGGNQVFSYTANKEIRTDDLCLDVSKLNGPVTMLKCHHLKGNQLWEYDPVKLTLQHVNSNQCLDKATDEDSQVPSIRDCSGSRSQQWLLRNVTLPEIF
modifications: native glycoprotein (peptide N-glycosidase F shifts it by approximately 6 kDa)
